Where “and” joins values, the source holds several entries; their conditions need not be identical. Equal values may be shown once.
Tests used:
mNC = test: methylallosamidin inhibition of mNC, chitobiose-4MU substrate; assay type: biochemical, cynomolgus monkey
Description: (§1) Analysis of hAMCase and mNC inhibition by methylallosamidin was performed by incubating various concentrations of methylallosamidin with 2 nM mNC or 2 nM hAMCase for 10 minutes prior to the addition of 5 μM chitobiose-4MU substrate. Maximal activity was determined by the initial rate of the enzyme activity without the inhibitor methylallosamidin. The percentage of enzyme activity was then calculated and plotted for each concentration of methylallosamidin compared to maximal activity. For the data shown in FIGS. 15C and 15D, the maximal initial rate (RFU/sec) is 1.1 for hAMCase and 21.0 for mNC. […] Conversely, 10 times more methylallosaminidin was required to inhibit mNC than hAMCase.

hAMCase = biological target: T1, hAMCase (Homo sapiens, UniProt Q9BZP6); test: methylallosamidin inhibition of hAMCase, chitobiose-4MU substrate; assay type: biochemical; settings: 2 nM hAMCase, 5 μM chitobiose-4MU
T1 construct: 6-histidine tag (C); made in house
Description: as §1

[1] = apparent Km of purified chitinases with increasing chitobiose-4MU; assay type: biochemical; settings: for Km: purified 6-histidine tagged enzyme
From the text: hAMCase, engineered with a C-terminal 6-histidine tag, was purified to a single band on SDS-PAGE from a stable CHO cell line transfected with cDNA encoding this hAMCase construct by nickel chromatography. Similarly, mNC, engineered with a C-terminal 6-histidine tag, was purified to a single band on an SDS-PAGE from COS cells transfected with cDNA encoding this mNC construct by nickel chromatography. The enzymatic activity of recombinant hAMCase to mNC was compared, as follows.

[2] = relative specific activity of purified chitinases; assay type: biochemical; settings: 5 μM chitobiose-4MU, 0.1 M citrate phosphate
Description: As shown in FIGS. 15A-15D, further characterization of the purified mNC was performed by measuring the relative specific activity, pH profiling, and inhibition by an art-recognized chitinase inhibitor, methylallosamidin. Briefly, various concentrations of mNC, ranging from 0.156 nM to 5 nM, or hAMCase, ranging from 1.56 nM to 50 nM, were incubated with 5 μM chitobiose-4MU substrate in 0.1 M citrate phosphate, 0.0005% Brij35 buffer. The relative specific activity of each enzyme was then determined by measuring the initial rate of enzyme activity versus the enzyme concentration.

[3] = pH profile of purified chitinases; assay type: biochemical; settings: for activity at lower pH values: pH 2.0 and 3.5; for pH of maximal activity: pH 2 to pH 8, 5 μM chitobiose-4MU; for slope of the initial rate at the various enzyme concentrations at maximal activity: pH 5.0, 5 μM chitobiose-4MU
Description: Analysis of the pH profiles of hAMCase and mNC were performed by incubating various concentrations of purified hAMCase (ranging from 0.05 nM to 50 nM) or mNC (ranging from 0.018 nM to 5 nM) with 5 μM chitobiose-4MU substrate in 0.1 M citrate phosphate buffer containing 0.005% Brij35 prepared at pH 2 to pH 8. The slope of the initial enzyme rate for each of the enzyme concentrations was then compared at each pH. […] The slope of the initial rate at the various enzyme concentrations measured for this maximal activity was 13.1 for mNC and 0.45 for hAMCase. This maximal value was set to 100% for each enzyme and the relative activity, for comparison of the activity at different pH values.

[4] = chitinase kcat and Km determination, hydrolysis of chitobiose-4MU; assay type: biochemical; settings: for chitobioside-4MU substrate concentration showing substrate inhibition / apparent transglycosylation: hAMCase 1 nM, mNC 0.25 nM
Description: Km and Kcat values for hAMCase and mNC. To better understand the mechanism for the increased specific activity of mNC compared to hAMCase, we measured the km and kcat for each enzyme. The progress curves of hAMCase (1 nM) hydrolysis reactions for 4MU product formation were linear during the first 10 min. for chitobioside-4MU substrate concentrations between 0 to 75 μM (data not shown). The rate of product formation was slower at the highest substrate concentration tested, 150 μM, compared to 75 μM, reflecting substrate inhibition due to transglycosylation, consistent with a previous report (Chou et al. (2006) Biochemistry 45, 4444-4454). We confirmed the high substrate concentration was not due to inner filter effect. In separate control experiments, the 4MU fluorescent signal was not quenched by chitobiose-4MU up to 600 μM.
The initial rates within the first 10 min. of hAMCase (1 nM) or mNC (0.25 nM) were plotted against the concentration of chitobiose-4MU that were in the linear range for both enzymes. […] The same Km and Kcat values for each enzyme were obtained from Line-weaver Burke plots of the linear curves.

[5] = chitin RBV assay (chitin hydrolysis); assay type: biochemical; settings: 37° C., 24 hours
Description: Chitin RBV assay. Carboxymethyl-substituted chitin labeled covalently with Remazol Brilliant Violet (CM-Chitin-RBV) (Loewe Biochemica, Sauerlach, Germany) was used to measure chitinolytic activity (Wirth S J, Wolf G A, (1992) Soil Biol Biochem v24 p511-519). A solution of 2 mg/ml CM-chitin-RBV (50 μL) was added to hAMCase (AMCase) or mNC (cyno chitintase) in a total volume of 200 μL of buffer (0.2 M citrate phosphate buffer pH 5.0) in 96-well v-bottom plates (Costar Cat. No. 3894 Acton, Mass.). The plates were sealed with low evaporation lids and incubated at 37° C. for 24 hours. The reaction was terminated by the addition of 1 N HCl, causing precipitation of the non-degraded high-polymeric substrate. The plates were cooled on ice for 10 min. and centrifuged (1400 g, 10 min). The supernatants (100 μL) were transferred to 96-well plates (Costar cat. No. 3690) and measured at […] (Molecular devices).
Chitin hydrolysis. We employed the chitin RBV assay, a soluble, dye-labelled and acid-precipitable assay for endo-chitinases to determine if mNC and hAMCase hydrolyze chitin (Wirth S J, Wolf G A (1992) Soil Biol Biochem 24, 511-519). […] The released amount of soluble chitin oligomers was dose-dependent on enzyme concentration (FIG. 16).

[6] = chitinase enzyme assay in conditioned media of transfected COS cells; assay type: biochemical
Description: Enzymatic activity assays were performed using cloned mNC, engineered hNC (stop codon substituted to allow for translation of full protein), engineered mut-hNC (truncated), and cloned hAMCase in COS cells. The full length mNC construct was expressed and the chitinase activity of the resultant gene products was measured.
Cultured conditions were as follows: COS cells were cultured in DME media and were transfected at 90% confluency using TransIT®-LT1 transfection reagent (MIRUS). 24 hours post transfection, cell culture media was replaced with serum-free R1CD1 media. Conditioned media, containing secreted enzyme, was collected 48 hours later. Chitinase enzyme assays were performed directly from these samples, as follows.

[7] = Table 1, pH 5.0 citrate phosphate buffer
[8] = Table 1, pH 5.0 citrate phosphate buffer, read-out: Km
[9] = text, Michaelis-Menten fit, hAMCase 1 nM or mNC 0.25 nM, read-out: Km app

T1 sequence (Q9BZP6 22-476 N45D/D47N/R61M/I339V/F354S/V432G): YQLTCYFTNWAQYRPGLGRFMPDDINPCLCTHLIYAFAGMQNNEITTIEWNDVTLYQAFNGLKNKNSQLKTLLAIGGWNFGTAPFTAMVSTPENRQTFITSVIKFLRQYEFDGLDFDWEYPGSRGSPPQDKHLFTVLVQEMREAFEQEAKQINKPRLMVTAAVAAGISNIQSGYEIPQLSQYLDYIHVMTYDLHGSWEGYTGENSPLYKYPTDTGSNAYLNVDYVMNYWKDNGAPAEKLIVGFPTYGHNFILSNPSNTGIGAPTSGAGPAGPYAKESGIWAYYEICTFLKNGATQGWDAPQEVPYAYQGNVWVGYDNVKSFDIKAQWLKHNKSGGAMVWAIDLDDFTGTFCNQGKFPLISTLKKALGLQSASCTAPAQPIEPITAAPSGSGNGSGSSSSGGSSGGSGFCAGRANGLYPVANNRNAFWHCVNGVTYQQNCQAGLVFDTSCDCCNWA

Row | Compound | inhibition of mNC with increasing concentrations of methylallosamidin (mNC; 2 nM mNC, 5 μM chitobiose-4MU) | IC50 (mNC; 2 nM mNC, 10 minutes preincubation, 5 μM chitobiose-4MU) [nM] | amount of inhibitor required to inhibit mNC relative to hAMCase (mNC; mNC versus hAMCase) [times] | inhibition of hAMCase with increasing concentrations of methylallosamidin (hAMCase) | IC50 (hAMCase; 10 minutes preincubation) [nM] | Km [1] [µM] | relative specific activity [2] [units/sec/nM] | activity at lower pH values [3] | pH of maximal activity [3] | slope of the initial rate at the various enzyme concentrations at maximal activity [3] | kcat [4, 7] | Km [4, 8] [µM] | chitobioside-4MU substrate concentration showing substrate inhibition / apparent transglycosylation [4] [µM] | kcat ([4]; summary text b32) | kcat ([4]; text b472, unit not given) | Km ([4]; text, Michaelis-Menten fit, hAMCase 1 nM or mNC 0.25 nM, listed as AMCase, read-out: Km app) [µM] | Km [4, 9] | chitin hydrolysis [5] | enzymatic (chitinase) activity [6] | lower apparent Km for chitobiose-4MU compared to hAMCase ([1]; mNC versus hAMCase) [fold]
1 | COC[C@H]1O[C@@H](O[C@H]2[C@@H](O)[C@@H](NC(C)=O)[C@H](OC3C(O)C4N=C(N(C)C)OC4C3CO)O[C@@H]2CO)[C@H](NC(C)=O)[C@H](O)[C@@H]1O (some centres unmarked) [methylallosamidin] | dose-dependent inhibition | 58 | 10 | dose-dependent inhibition | 5.5 |  |  |  |  |  |  |  |  |  |  |  |  |  |  | 
2 | hAMCase: human Acidic Mammalian Chitinase, SEQ ID NO:29 |  |  |  |  |  | 20 | 0.4 | lower activity, but retain significant activity | 5.0 | 0.45 | 3.0 ± .35 s − 1 | 42 ± 6 | 150 | about 3 s^−1 | 3.0+/−0.35 | 42 | ~42 µM | generated soluble chitin oligomers |  | 
3 | mNC: macaque novel chitinase cloned from cynomolgus monkey, SEQ ID NO:2 |  |  |  |  |  | 2 | 14.4 | lower activity, but retain significant activity | 5.0 | 13.1 | 31.8 ± 3.2 s − 1 | 6 ± 1 | ≥ 37 | about 32 s^−1 | 31.8+/−3.2 |  | ~6 µM and 6 µM | generated soluble chitin oligomers | significant enzymatic activity | 10
